Drawing on patent CN115594762A (KUNSHAN XINYUNDA BIOTECHNOLOGY CO LTD, dated 2023), this text covers EC50 for one molecule.

The assay addresses 人重链铁蛋白(HFn) (人铁蛋白H亚基, wild type, recombinant from E. coli) (human). The experiment in a line: ELISA, antigen coated at 1 μg/ml, purified antibody titrated, HRP goat anti-mouse IgG, OD450. A general note: In an ELISA, binding on a coated surface is turned into a signal by an enzyme label.

人重链铁蛋白(HFn) (人铁蛋白H亚基, wild type, recombinant from E. coli) (human), sequence (chain, as listed by the source): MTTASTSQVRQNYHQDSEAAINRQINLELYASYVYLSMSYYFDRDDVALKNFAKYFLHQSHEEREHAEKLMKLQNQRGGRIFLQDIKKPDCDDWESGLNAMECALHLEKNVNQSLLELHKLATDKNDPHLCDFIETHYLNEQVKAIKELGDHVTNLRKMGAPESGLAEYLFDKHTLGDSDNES

B1: 单克隆抗体3A (抗人重链铁蛋白的抗体3A, secreted by hybridoma 3A7 1B6, CGMCC NO:21906) (antibody, IgG2b, V domains shown)
VH: EVQLQQPGAELVKPGTSVKLSCKASGYIFTSYWMHWVKQRPGQGLEWIGEINPSNARTNYNEKFKSKATLTVDKSSSTTYMQLSSLTSEDSAVYYCARSSYGKNAMDYWGQGTSVTVSS
VL: DIQMTQTPSSLSASLGDRVTISCRTSQDISNYLNWYQQKPDGTVKLLIYYTSRLHSGVPSRFSGSGSGTAYSLTISNLEQEDIATYLCQEGNTLPRTFGGGTKLEIKR
notes: also called 3A单抗; 3A抗体
Broadly, the EC50 is the concentration at which the effect is half-maximal. As to B1, the half-maximal effective concentration (EC50) was found to be 3.68 ng/mL.
